In the supplement of paper PMC10567573:
± gives the standard deviation.

Assay: protein stability index of a GFP-peptide fusion (GPS, HEK-293T) (PSI 1-6); higher = more stable
[1] = treatment: DMSO, c terminus: a fixed tail appended
[2] = treatment: MLN4924 1 uM, 8 h, c terminus: a fixed tail appended
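Further: 24-mer peptide tiles fused after GFP, lentivirally expressed, FACS-sorted into six equal bins by GFP/DsRed ratio, decoded by Illumina sequencing, PSI is the read-weighted mean bin number.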

Sequence | protein stability index [1] | protein stability index [2] | protein stability index (treatment: DMSO, c terminus: native) | protein stability index (treatment: MLN4924 1 uM, 8 h, c terminus: native)
KGPLVPFPNQKSEAAEPPKTPPSS [KMT5A] | 5.25 ± 0.25 | 5.39 ± 0.21 |  | 
KHLTDTSHGVRNKCLQLLGNLGSL [INTS4] | 2.45 ± 0.4 | 2.46 ± 0.42 |  | 
KIGYHLLYYLRASKAAAGKMNLYE [INTS3] | 2.3 ± 0.49 | 2.25 ± 0.23 |  | 
KKAWDDLKKYLEPRCPRMVLSLKE [FBXO3] | 2.78 ± 0.26 | 2.86 ± 0.17 |  | 
KKCGRENWTVAFAPDGSYFAWSQG [WSB1] | 2.33 ± 0.53 | 2.22 ± 0.31 |  | 
KKSRSPASAEAPGDSGERSEGEAM [ZNF511] | 5.53 ± 0.39 | 5.57 ± 0.1 |  | 
KKWGINTYKCTKQLLSERFGRGSR [ARFIP2] | 2.65 ± 0.28 | 2.86 ± 0.53 |  | 
KLKPLGEAEREFILNLKKKECKDR [NLN] | 4.17 ± 0.23 | 4.45 ± 0.2 |  | 
KLPSSGSGKRLSGVSSVDSAFSSR [RIPK4] | 3.9 ± 0.095 | 3.99 ± 0.4 |  | 
KLRHLDISRDRLSSYYKFKLTREV [ZER1] | 2.35 ± 0.13 | 2.39 ± 0.31 |  | 
KLSARDHQKLEREARICRLLKHPN [CAMK2D] | 3.38 ± 0.31 | 3.8 ± 0.39 |  | 
KLTREVLSLFVQKLGNLMSLDISG [ZER1] | 2.86 ± 0.81 | 2.56 ± 0.46 |  | 
KMKFVIGNGKNLVDFTFVENVVHG [NSDHL] | 2.24 ± 0.19 | 2.24 ± 0.47 |  | 
KMKHHLTEHMKTHTGLKPYECGVC [ZBTB22] | 3.32 ± 0.28 | 3.5 ± 0.47 |  | 
KMLLMYCAKMEKDGYGMTPLLSAS [FEM1C] | 2.56 ± 0.67 | 2.11 ± 0.46 |  | 
KNLYKLASQCCGVHVISLHIWELS [PTGFR] | 2.97 ± 0.15 | 3.06 ± 0.48 |  | 
KNVEENLYSSSLGGGVATSPMLIV [GLT8D2] | 2.26 ± 0.26 | 2.06 ± 0.22 |  | 
KNVELKFVDSIRRQFEFSVDSFQI [TENT5C] | 2.29 ± 0.6 | 2.42 ± 0.39 |  | 
KPLFCGNSEADQLGKIFDLIGLPP [CDK4] | 2.62 ± 0.15 | 2.71 ± 0.28 |  | 
KPLTLEALGHLGNDDSADYQHFLQ [DLC1] | 4.23 ± 0.12 | 4.33 ± 0.15 |  | 
KPSKELKPLLGSAVLGLLLVLAAV [MYORG] | 2.4 ± 0.25 | 2.34 ± 0.28 |  | 
KQIAGGDVTAKNIWLAESVLDILT [INTS3] | 2.2 ± 0.064 | 2.13 ± 0.26 |  | 
KQIAVAITEALRPAGVGVVVEATH [GCH1] | 2.37 ± 0.28 | 2.42 ± 0.25 |  | 

Sequence | protein stability index [1] | protein stability index [2] | protein stability index (treatment: DMSO, c terminus: native) | protein stability index (treatment: MLN4924 1 uM, 8 h, c terminus: native)
KQKTSAALSTMGTLICRKLGGVKK [TPD52L3] | 2.98 ± 0.29 | 2.83 ± 0.34 |  | 
KQPNCSSLFKLKPLSNKTATDDTG [PLD5] | 4.46 ± 0.13 | 4.772 ± 0.045 |  | 
KRKREEEEEKEPLAVDSWWLDPGH [SERTAD1] | 4.64 ± 0.38 | 4.79 ± 0.15 |  | 
KSHLIFPQPNYADTLISQESCEKN [PCDHGA10] | 4.32 ± 0.17 | 4.32 ± 0.21 |  | 
KSITSAMNELQHDLDVVSDALAKV [TPH1] | 4.4 ± 0.18 | 4.47 ± 0.12 |  | 
KSRRKAALSSPRSRKNATQPPNAE [INTS3] | 5.08 ± 0.33 | 4.98 ± 0.39 |  | 
KSYNICFELEDSNEIFTQLYRTLF [PDS5B] | 3.05 ± 0.83 | 2.87 ± 0.61 |  | 
KTEDENKQSFLDGGKGHHLPSENL [TOR1AIP2] | 5.4 ± 0.21 | 5.27 ± 0.22 |  | 
KTTQEAEKLLERQGQAKTPDSMFL [CDK11A] | 4.68 ± 0.28 | 4.73 ± 0.2 |  | 
KVHMKDVMSALWVSGLDSSYLREQ [GAN] | 2.1 ± 0.47 | 2.23 ± 0.26 |  | 
KVIYLDDDVIVQGDIQELYDTTLA [GLT8D2] | 2.65 ± 0.36 | 2.94 ± 0.29 |  | 
KVRALEEANADLEVKIRDWHLKQS [KRT13] | 4.05 ± 0.2 | 4.22 ± 0.13 |  | 
KYTPSNKHGFSWAVPKFMKRIKVP [DLC1] | 2.49 ± 0.36 | 2.6 ± 0.44 |  | 
LADDHLIEVNGENVEDASHEEVVE [PDZK1] | 5.65 ± 0.1 | 5.54 ± 0.24 |  | 
LAGTQLLYAFFTRTHGDMHSLVRS [TRIB3] | 3.13 ± 0.38 | 3.05 ± 0.35 |  | 
LALRGRLQLEACGMRRKSLLTRKV [GOLPH3] | 2.26 ± 0.13 | 2.41 ± 0.21 |  | 
LALYTPVGAAGSARQELLGDRPRW [ANKRD9] | 3.28 ± 0.27 | 2.96 ± 0.21 |  | 
LANPVLESTPVGTVVGLFNVRDRD [PCDHGC5] | 4.08 ± 0.35 | 4.06 ± 0.34 |  | 
LASPHTVAAVLEAVAQTAHLPADS [RSAD1] | 3.61 ± 0.33 | 3.83 ± 0.25 |  | 
LDDGEIDEIRWKYHSDTTPKIIES [IQUB] | 4.25 ± 0.23 | 3.98 ± 0.24 |  | 
LDISDSISESGGLNWKMTLCLLVA [SLC6A17] | 2.54 ± 0.48 | 2.5 ± 0.79 |  | 
LDKVKDGGYRPAEDKIFPVPEEPP [ZBED1] | 5.11 ± 0.18 | 5 ± 0.16 |  | 
LDMDDGTLSFIVDGQYMGVAFRGL [SPSB1] | 2.61 ± 0.67 | 2.32 ± 0.31 |  | 

Sequence | protein stability index [1] | protein stability index [2] | protein stability index (treatment: DMSO, c terminus: native) | protein stability index (treatment: MLN4924 1 uM, 8 h, c terminus: native)
LDWISYQVEKNKYDASAIDFSRCD [ELF3] | 2.93 ± 0.23 | 3.01 ± 0.1 |  | 
LEAAEVILEHAHRGEQTTSQVSWE [FCHSD1] | 3.63 ± 0.58 | 4.25 ± 0.79 |  | 
LEIYQSSQDEPIALDKQHSRDSAA [NOL4L] | 4.89 ± 0.24 | 5.16 ± 0.12 |  | 
LELGSYIKDLSVVHSDLSSIVILD [CTDNEP1] | 2.4 ± 0.13 | 2.48 ± 0.62 |  | 
LELNFKAGDVIFLLSRINKDWLEG [NCF4] | 2.77 ± 0.7 | 3.09 ± 1.6 |  | 
LEQCSASIEVGGSVNFDGETIEGA [FEM1C] | 5.4 ± 0.3 | 5.14 ± 0.57 |  | 
LFMKKNHEEEVKGLQAQIASSGLT [KRT18] | 3.81 ± 0.15 | 3.98 ± 0.27 |  | 
LFQFSNCSQGQQLATFSSDWEIQE [CCDC3] | 3.12 ± 0.45 | 2.94 ± 0.33 |  | 
LFQLSCSSTQLNELLLFAVGFIMA [OR3A1] | 2.71 ± 0.45 | 2.98 ± 0.87 |  | 
LFTIPLLYRQHQAQIDQYVGLVTN [RTN2] | 2.81 ± 0.57 | 2.95 ± 0.48 |  | 
LFVIVPVLGPLVALIICYNWLHRR [MOG] | 3.38 ± 0.68 | 3.11 ± 0.58 |  | 
LFYKPGIVLLLALAKYLKMNNFL [GULP1] |  |  | 2.87 ± 0.92 | 2.87 ± 0.91
LGAEESLGLLDDYLEVAKHFKPHG [ATF4] | 3.24 ± 0.33 | 3.56 ± 0.36 |  | 
LGAVAGLALGPILRLYKHNSQALL [MFSD9] | 2.59 ± 1.1 | 2.43 ± 0.15 |  | 
LGHPALSQEEGKSALEDQGSNPSS [PPFIA4] | 5.59 ± 0.21 | 5.25 ± 0.91 |  | 
LGKTNAKAVSEMRQKIWNNMPKDH [DYNC2LI1] | 3.38 ± 0.23 | 3.62 ± 0.37 |  | 
LGLSKLARIVEIYSRRLQVQERLT [GCH1] | 2.71 ± 0.65 | 2.2 ± 0.41 |  | 
LHKIYLCQSGYFSSMFSGSWKESS [GMCL1] | 2.26 ± 0.82 | 2.18 ± 0.37 |  | 
LHKQVLMGPYNPDTCPEVGFFDVL [ACBD3] | 2.4 ± 0.31 | 2.18 ± 0.21 |  | 
LHYAAMHGRARIARLMLESEYRSD [ASB7] | 2.73 ± 0.19 | 2.77 ± 0.28 |  | 
LIANRSYKVSAASSFFFSGVFVGV [SLC22A15] | 2.69 ± 0.8 | 2.49 ± 0.64 |  | 
LIFSPCSDCEEEEEEEEEEGSGHS [WEE1] | 4.88 ± 0.19 | 5.03 ± 0.13 |  | 
LIILWKNGERESGLRSLRLFQKLE [WDR41] | 2.15 ± 0.26 | 2.5 ± 0.49 |  | 

Sequence | protein stability index [1] | protein stability index [2] | protein stability index (treatment: DMSO, c terminus: native) | protein stability index (treatment: MLN4924 1 uM, 8 h, c terminus: native)
LKAFNMFVRLFVDENLDRMVPISK [NOL4L] | 2.67 ± 0.61 | 2.41 ± 0.27 |  | 
LKEAPVQDQGYKTLRLRENCVLSS [ZNF8] | 3.88 ± 0.12 | 3.84 ± 0.1 |  | 
LKLQTKDGHRPEWTFYPRFSSNIH [SPATS1] | 2.4 ± 0.3 | 2.48 ± 0.32 |  | 
LKTLEEGLEGLEDAPPVELQLLHE [FANCE] | 4.81 ± 0.26 | 4.91 ± 0.38 |  | 
LLCAVCYDPFRDAVTLRCGHNFCR [TRIM35] | 2.38 ± 0.23 | 2.46 ± 0.29 |  | 
LLDKAGVPPGVVNIVFGTGPRVGE [ALDH8A1] | 2.53 ± 0.16 | 2.76 ± 0.51 |  | 
LLELAGEVTDTGDPIVRPLWWIAP [MYORG] | 2.46 ± 0.21 | 2.43 ± 0.24 |  | 
LLEQAGSLKGSLSVEEQLSLISGC [CRYL1] | 2.98 ± 0.32 | 3.2 ± 0.39 |  | 
LLFACSPPPASQPVVKALFGASAA [CDC25A] | 2.44 ± 0.12 | 2.35 ± 0.12 |  | 
LLGALVLLGLGVLLFSGGLSESET [PBXIP1] | 2.29 ± 0.77 | 2.47 ± 0.89 |  | 
LLGATKRSMVFKDVLLLGNDYIVP [HNF4A] | 2.28 ± 0.34 | 2.3 ± 0.11 |  | 
LLHNDEYQETMVESTFMYLTLDLP [USP39] | 2.31 ± 0.29 | 2.29 ± 0.34 |  | 
LLKRIKKCCGMRNTDVSMENMVTV [KCNK9] | 2.22 ± 0.52 | 2.32 ± 0.25 |  | 
LLKSHTNVLSVNLPDNFTLKEDGM [TPH1] | 3.15 ± 0.24 | 3.22 ± 0.34 |  | 
LLKTEALKRQAQEEAKGALLGTSG [DAPK3] | 4.89 ± 0.15 | 4.47 ± 0.12 |  | 
LLTSPRAINNLVLQGCSSIGLRLV [KLHL14] | 2.92 ± 0.53 | 2.74 ± 0.69 |  | 
LLVGAAVFDALESDHEMREEEKLK [KCNK9] | 4.26 ± 0.34 | 4.29 ± 0.24 |  | 
LMFFIMAAMLSMVKYNSCADRPFS [POMT2] | 3.19 ± 0.7 | 3.06 ± 0.32 |  | 
LMMRGVKHHNLEGLRKRIATLFFH [IQUB] | 2.34 ± 0.62 | 2.52 ± 0.7 |  | 
LMSYERRQILHLITMMALKVLGEL [TENT5D] | 2.67 ± 0.24 | 2.39 ± 0.31 |  | 
